Data reported in patent US6399758B1, “Nucleic acids for reducing carbohydrate epitopes” (The Austin Research Institute, priority 1996, dated 2002).
Where two headings read alike, the source gives them in different places.

How the values were obtained:
[1] = Type II Galβ(1,4)GlcNAc; literature refs 34, 37; read-out: Km reported; cited from earlier work
[2] = Type I Galβ(1,3)GlcNAc; literature refs 34, 35; read-out: Km reported; cited from earlier work
[3] = Enzyme kinetics, apparent Km, Type I substrate; type: biochemical; conditions: Type I Galβ(1,3)GlcNAc; lysates of transfected COS cells
Procedure: (§1) Cells were washed twice with phosphate buffered saline and lysed in either 1% Triton X100/100 mM Tris pH7.0 or 1% Triton X100/100 mM sodium cacodylate pH 6.5/25 mM MnCl2 at 4° C. for 30 min, lysates centrifuged and the supernatant collected and stored at −70° C. Protein concentration was determined by the Bradford test, using bovine serum albumin as a standard; 5-20 μg of cell extract was used per transferase assay. The assay for α-1,2 fucosyltransferase involved mixing cell extracts and acceptor (75 mM pheny-β-Dgalactoside (Sigma)) in 50 μl 50 mM MOPS (3-[N-Morpholino]propanesulphonic acid) pH 6.5; 20 mM MnCl2; 5 mM ATP; 3 μM GDP[^14C]-Fuc (specific activity 287 mCi/mmol, Amersham International plc, Amersham, UK) and incubation for 2 h at 37° C. The reaction was terminated by the addition of ethanol, and the incorporated ^14C-Fuc determined by liquid scintillation counting after separation in Sep-Pak C18 cartridges (Waters-Millipore, Millford, Mass.). In all cases the parallel reactions were performed in the absence of added acceptor molecules, to allow for the calculation of specific incorporation.
(§2) Cell lysates prepared from COS cells transfected in the manner described in Example 1 with pFUT2 (pig Se), pFUT1 (pig H transferase), or with vector alone were assayed for α(1,2)-fucosyltransferase activity, and the kinetic values were calculated. […]

[4] = tested on: α(1,2)-fucosyltransferase; test: α(1,2)-fucosyltransferase activity in lysates of transfected COS cells; type: biochemical, pig; conditions: mock-transfected baseline 1.1
Procedure: as §1
Cell lysates prepared from COS cells transfected with pFUT2 and pFUT1 were assayed for α(1,2)-fucosyltransferase activity. […] The enzyme activity measured in these lysates reflects the expression of H substance on the cell surface as shown in Example 2.

[5] = Enzyme kinetics, apparent Km, Type IV substrate; type: biochemical; conditions: Type IV Galβ(1,4)Gal; lysates of transfected COS cells
Procedure: as §1, §2

[6] = Enzyme kinetics, apparent Km, Type III substrate; type: biochemical; conditions: Type III Galβ(1,3)GalNAc; lysates of transfected COS cells
Procedure: as §1, §2

[7] = Enzyme kinetics, apparent Km, Type II substrate; type: biochemical; conditions: Type II Galβ(1,4)GlcNAc; lysates of transfected COS cells
Procedure: as §1, §2

[8] = Enzyme kinetics, apparent Km, lactose; type: biochemical; conditions: Lactose Galβ(1,4)Glc; lysates of transfected COS cells
Procedure: as §1, §2

[9] = Type III Galβ(1,3)GalNAc; literature ref 34; read-out: Km reported; cited from earlier work

Row | Molecule | Km [1] [mM] | Km [2] [mM] | Km [3] [mM] | α(1,2)-fucosyltransferase activity [4] [nmol/h/mg] | Km [5] [mM] | Km [6] [mM] | Km [7] [mM] | Km [8] [mM] | Km [9] [mM]
1 | human FUT2: human α(1,2)-fucosyltransferase FUT2 (secretor), literature homologue (protein, UniProt Q10981 1-343, looked up) Galactoside …: MLVVQMPFSFPMAHFILFVFTVSTIFHVQQRLAKIQAMWELPVQIPVLASTSKALGPSQLRGMWTINAIGRLGNQMGEYATLYALAKMNGRPAFIPAQMHSTLAPIFRITLPVLHSATASRIPWQNYHLNDWMEEEYRHIPGEYVRFTGYPCSWTFYHHLRQEILQEFTLHDHVREEAQKFLRGLQVNGSRPGTFVGVHVRRGDYVHVMPKVWKGVVADRRYLQQALDWFRARYSSLIFVVTSNGMAWCRENIDTSHGDVVFAGDGIEGSPAKDFALLTQCNHTIMTIGTFGIWAAYLTGGDTIYLANYTLPDSPFLKIFKPEAAFLPEWTGIAADLSPLLKH | 5.7 | 1 | – | – | – | – | – | – | –
2 | pFUT1: pig H type α(1,2)-fucosyltransferase expressed in COS cells; label also used for the plasmid encoding it (protein, UniProt Q29043 1-365, looked up) Galactoside …: MWVPSRRHLCLTFLLVCVLAAIFFLNVYQDLFYSGLDLLALCPDHNVVSSPVAIFCLAGTPVHPNASDSCPKHPASLSGTWTIYPDGRFGNQMGQYATLLALAQLNGRQAFIQPAMHAVLAPVFRITLPVLAPEVDRHAPWRELELHDWMSEDYAHLKEPWLKLTGFPCSWTFFHHLREQIRSEFTLHDHLRQEAQGVLSQFRLPRTGDRPSTFVGVHVRRGDYLRVMPKRWKGVVGDGAYLQQAMDWFRARYEAPVFVVTSNGMEWCRKNIDTSRGDVIFAGDGREAAPARDFALLVQCNHTIMTIGTFGFWAAYLAGGDTIYLANFTLPTSSFLKIFKPEAAFLPEWVGINADLSPLQMLAGP | – | – | 6 | 140.0 | 4.2 | 14 | 3.7 | 1.9 | –
3 | pFUT2: pig Secretor type α(1,2)-fucosyltransferase expressed in COS cells; label also used for the plasmid encoding it (protein, UniProt Q10982 1-340, looked up) Galactoside …: MLSMQASFFFPTGPFILFVFTASTIFHLQQRMVKIQPTWELQMVTQVTTESPSSPQLKGMWTINAIGRLGNQMGEYATLYALARMNGRPAFIPPEMHSTLAPIFRITLPVLHASTARRIPWQNYHLNDWMEERYRHIPGEYVRLTGYPCSWTFYHHLRTEILREFTLHNHVREEAQDFLRGLRVNGSRPSTYVGVHVRRGDYVHVMPNVWKGVVADRRYLEQALDWFRARYRSPVFVVSSNGMAWCRENINASRGDVVFAGNGIEGSPAKDFALLTQCNHTVMTIGTFGIWAAYLAGGETIYLANYTLPDSPFLKLFKPEAAFLPEWIGIEADLSPLLKH | – | – | 1.3 | 151.1 | 1.5 | 0.2 | 4.4 | 7.4 | –
4 | human FUT1: human α(1,2)-fucosyltransferase FUT1 (H transferase), literature homologue (protein, UniProt P19526 1-365, looked up) Galactoside …: MWLRSHRQLCLAFLLVCVLSVIFFLHIHQDSFPHGLGLSILCPDRRLVTPPVAIFCLPGTAMGPNASSSCPQHPASLSGTWTVYPNGRFGNQMGQYATLLALAQLNGRRAFILPAMHAALAPVFRITLPVLAPEVDSRTPWRELQLHDWMSEEYADLRDPFLKLSGFPCSWTFFHHLREQIRREFTLHDHLREEAQSVLGQLRLGRTGDRPRTFVGVHVRRGDYLQVMPQRWKGVVGDSAYLRQAMDWFRARHEAPVFVVTSNGMEWCKENIDTSQGDVTFAGDGQEATPWKDFALLTQCNHTIMTIGTFGFWAAYLAGGDTVYLANFTLPDSEFLKIFKPEAAFLPEWVGINADLSPLWTLAKP | 1.9 | 2 | – | – | – | – | – | – | –
5 | rabbit FUT1: rabbit α(1,2)-fucosyltransferase FUT1, literature homologue (protein, UniProt Q10979 1-373, looked up) Galactoside …: MWPPSRRQLCLAFLLVCALSAFSFLLHLHQDLFRNGLALSLPCLERQPVPAPVAIVCLPVTSPASNASSCAGRPAAPSGIWTIHPDGRFGNQMGQYATLLALAQLNGRRAFILPAMHAALAPVFRITLPVLAPEVNRRTSWKQLLLHDWMSEEYSRLEDPFLKFTGFPCSWTFFHHVREQIRREFTLHDHLREEAQRLLGKLRLGRTGARPRTFVGVHVRRGDYLQVMPQRWKGVVGDRAYLQQAMDWFRARHEAPIFVVTSNGMKWCWENIDASRGDVVFAGNGLESSPAKDFALLTQCNHTVMTIGTFGFWAAYLAGGDTVYLANFTLPDSEFLKIFKPEAAFLPEWVGINADLSPVRTLSGSWRPWRFLG | 4.2 | 3.1 | – | – | – | – | – | – | 5.8
6 | rabbit FUT2: rabbit α(1,2)-fucosyltransferase FUT2, literature homologue (protein, UniProt Q10983 1-354, looked up) Galactoside …: MRFAPDYVLCPPTATRRLRATHPSVSTIYFLFTIFVVSTVFHCHQRLALVPAPWAYSARVVVVPGHLPREGMWTINAMGRLGNQMGEYATLYALAKENGRPAYIPAQMHSTLAPIFRISLPVLHSSTASRVPWQNYHLNDWMEERYRHIPVPYVRLTGYPCSWTFYHHLRHEILREFTLHDHVREEAQAFLRGLRVNGSRPSTFVGVHVRRGDYVRVMPQVWKGVVADRGYLEQALDWFRAPTAPPVFVVTSNGMAWCRENIDASRGDVVFAGNGLEGSPAKDFALLTQCNHTVMTIGTFGFWAAYLTGGDTVYLANYTAPDSPFHLVFKPEAAFLPEWVGITANMGRALWSGL | 6.7 | 1.5 | – | – | – | – | – | – | 1
